Data set [1] concerns the target T1, S100A4Δ13 (C-terminal deletion mutant, residues 1-88) (human, UniProt P26447 1-88).
T1 construct: human S100A4, residues 1-88 (F89-K101 deleted); also called Δ13 mutant; Δ13 S100A4
Nature of the data set: ITC; 75 µM S100A4Δ13 in the cell titrated with MPT at 25°C (298 K) in the presence of 1 mM CaCl2. As to conditions: both partners purified. For orientation: ITC needs no label: the signal is the heat of the interaction.

Data set [2] deals with the molecule itself. Nature of the data set: pulsed field gradient NMR diffusion; Ca2+-bound: same sample after addition of Ca2+ to 9 mM, 287 K; one and two components fitted for WT.

T1 sequence (P26447 1-88, stated change not applied): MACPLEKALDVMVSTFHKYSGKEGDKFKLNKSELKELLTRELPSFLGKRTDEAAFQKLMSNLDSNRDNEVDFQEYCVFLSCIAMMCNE

B1: NMIIA fragment MPT (Tyr-Arg1894-Lys1937) (peptide)
peptide: YRKLQRELEDATETADAMNREVSSLKNKLRRGDLPFVVPRRMARK
notes: extra N-terminal tyrosine, printed as 'Tyr-Arg1894-Lys1937'; non-muscle myosin IIA (NMIIA) heavy chain, residues Arg1894-Lys1937; also called MPT peptide; myosin IIA fragment; not shown: His10, N-terminal, cleaved; ubiquitin, N-terminal, cleaved
For B1, the Kd (as a rule, the free concentration of one partner at which half of the binding sites on the other are occupied at equilibrium, for simple one-to-one binding) in data set [1] is 14.7 nM.

B2: S100A4 C-terminal deletion mutant (residues 1-88, Δ13) (domain or fragment)
chain: not shown
notes: also called Δ13 mutant; S100A4Δ13
As to B2, the stoichiometry N (commonly the number of molecules, sites or subunits per partner or assembly) in data set [2] amounted to 2.

These data come from paper PMC4022583, “The C-Terminal Random Coil Region Tunes the Ca^2+-Binding Affinity of S100A4 through Conformational Activation” (PLoS ONE, 2014).
